One substance from patent US20130345401 can be followed below.

The test system of this data set is T1, human fibrinogen produced in a silkworm (recombinant fibrinogen extracted from cocoons of β42-3×α/γ106-2×IM transgenic silkworms).
T1 sequence 1: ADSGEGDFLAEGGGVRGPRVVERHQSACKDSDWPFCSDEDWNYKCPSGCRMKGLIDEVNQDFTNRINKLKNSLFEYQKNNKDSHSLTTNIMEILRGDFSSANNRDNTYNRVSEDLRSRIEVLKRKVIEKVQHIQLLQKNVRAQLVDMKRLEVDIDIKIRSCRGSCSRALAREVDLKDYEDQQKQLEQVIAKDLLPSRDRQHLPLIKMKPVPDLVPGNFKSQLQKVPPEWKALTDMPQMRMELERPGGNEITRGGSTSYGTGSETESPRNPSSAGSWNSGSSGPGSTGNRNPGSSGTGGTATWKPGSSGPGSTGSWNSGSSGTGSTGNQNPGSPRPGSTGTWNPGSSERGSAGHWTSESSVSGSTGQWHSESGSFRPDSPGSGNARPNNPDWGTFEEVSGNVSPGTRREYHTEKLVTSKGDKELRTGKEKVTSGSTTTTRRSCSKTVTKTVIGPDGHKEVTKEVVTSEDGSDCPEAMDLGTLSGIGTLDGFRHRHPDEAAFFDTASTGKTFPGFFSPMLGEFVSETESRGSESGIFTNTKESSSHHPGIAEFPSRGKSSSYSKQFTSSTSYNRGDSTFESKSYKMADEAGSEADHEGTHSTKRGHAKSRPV
T1 sequence 2: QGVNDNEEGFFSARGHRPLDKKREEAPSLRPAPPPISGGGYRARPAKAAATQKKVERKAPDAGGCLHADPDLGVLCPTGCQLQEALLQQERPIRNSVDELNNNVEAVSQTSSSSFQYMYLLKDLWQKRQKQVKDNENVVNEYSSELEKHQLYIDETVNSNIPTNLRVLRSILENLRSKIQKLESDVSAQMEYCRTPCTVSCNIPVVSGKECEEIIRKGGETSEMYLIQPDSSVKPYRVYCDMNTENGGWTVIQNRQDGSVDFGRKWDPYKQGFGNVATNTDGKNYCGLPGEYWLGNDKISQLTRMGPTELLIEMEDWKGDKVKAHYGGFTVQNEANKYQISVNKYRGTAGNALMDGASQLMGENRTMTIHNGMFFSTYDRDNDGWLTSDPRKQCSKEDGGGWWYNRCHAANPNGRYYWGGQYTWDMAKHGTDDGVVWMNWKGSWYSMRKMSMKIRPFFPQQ
T1 sequence 3: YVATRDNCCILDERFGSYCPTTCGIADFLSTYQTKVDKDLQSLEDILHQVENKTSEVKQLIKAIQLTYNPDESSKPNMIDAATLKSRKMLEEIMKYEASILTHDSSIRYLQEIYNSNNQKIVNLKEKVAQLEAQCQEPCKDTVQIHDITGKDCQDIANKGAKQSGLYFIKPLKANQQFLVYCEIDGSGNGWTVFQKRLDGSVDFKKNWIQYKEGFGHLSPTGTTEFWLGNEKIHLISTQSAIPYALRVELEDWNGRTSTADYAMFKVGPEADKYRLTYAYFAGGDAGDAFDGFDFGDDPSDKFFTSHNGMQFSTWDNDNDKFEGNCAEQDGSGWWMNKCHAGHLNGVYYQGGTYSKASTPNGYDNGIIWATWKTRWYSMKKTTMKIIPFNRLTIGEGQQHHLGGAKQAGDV

Consider thrombin (Calbiochem), for which the “coagulation (fibrin clot formation): viscosity of the liquid after incubation with 10 U/ml thrombin at 37° C. for 1 hour” value was “viscosity of the liquid increased to an extent where, when the liquid was sucked into a pipette, the liquid hardly dropped from the tip of the pipette”.
